Assay results from the supplement of paper PMC9732359.
± gives the uncertainty stated by the source.

Experiment: protein stability index of a GFP-peptide fusion (yeast GPS) (PSI 1-4); higher = more stable; sorted into four equal gates, so the index is relative within each strain
In short: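 Sequencing reads from sorted gates were used to score each peptide. The library consisted of tiled 17-residue yeast protein peptides fused downstream of GFP on a Cherry-expressing plasmid, pooled and carried in yeast. Mid-log cultures in leucine-free medium were split into four equal gates by GFP/Cherry ratio, and each gate's plasmids were PCR-amplified and Illumina-sequenced. The protein stability index adds up, over all gates, the read frequency multiplied by the gate number.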

Sequence	protein stability index (doa10∆)	protein stability index (pdr5∆)	protein stability index (san1∆)	protein stability index (ubr1∆)
GRLDRKVEIPLPNEAGR [RPT4]	3.16 ± 0.13	3.27 ± 0.1	3.11 ± 0.065	3.09 ± 0.1
TKIAQSQTMAETYVASY [ECM29]	1.92 ± 0.037	2.48 ± 0.036	2.27 ± 0.044	2.22 ± 0.034
SLDRVAWRTLVGVSHTN [CYT1]	1.3 ± 0.053	1.31 ± 0.048	1.34 ± 0.11	1.25 ± 0.043
MDLFMSTLGDCLGIKDE [GAL11]	3.54 ± 0.25		3.38 ± 0.16	3.22 ± 0.2
AKILSQAPTELELQVAQ [RPS7A]	2.48 ± 0.048	2.75 ± 0.052	2.3 ± 0.053	2.5 ± 0.046
PYMPYYYYYHPMNAPTP [DSN1]	2.52 ± 0.043	2.71 ± 0.043	2.64 ± 0.045	2.69 ± 0.032
LQRDLIQTKEQVSINSN [YIL149C/MLP2]	2.78 ± 0.072	3.12 ± 0.089	3.11 ± 0.065	3.27 ± 0.059
KGAGLSMGTMICGYTRK [PRE2]	1.64 ± 0.16	1.27 ± 0.17		1.11 ± 0.17
IIPSRMGEAQTGANFDD [REC8]	1.93 ± 0.089	2.16 ± 0.12	3.04 ± 0.25	2.74 ± 0.1
EPPLSYEQHIENIEPLD [PRP8]	2.44 ± 0.087	2.97 ± 0.097	2.32 ± 0.12	3.03 ± 0.27
AAMVPFIKFKLIQQVPP [CDC53]	2.12 ± 0.062	1.92 ± 0.07	2.17 ± 0.1	2.07 ± 0.068
LIIRNDSLSGAVIAAIM [RPT3]	3.17 ± 0.11	3.09 ± 0.11	2.94 ± 0.21	3.12 ± 0.098
NLTDEGYQWGEENKDIM [PRP8]	2.81 ± 0.21			3.2 ± 0.23
FPWLNAIKYRPTSVKLL [POP3]	2.1 ± 0.038	2.19 ± 0.046	2.26 ± 0.062	1.96 ± 0.035
QMTWRQWLNNALKRSYG [POP8]	2.9 ± 0.085	3.08 ± 0.14	3.56 ± 0.079	3.2 ± 0.079
AGAAGAAAGGDAAEEEK [RPP2B]				1.27 ± 0.27
DLKLLFNTEAEQTVSAV [RGR1]	2.84 ± 0.088	2.93 ± 0.085	3.33 ± 0.11	3.19 ± 0.066
IIMQADLALKMGVPIYG [FAS2]	1.63 ± 0.12	2.04 ± 0.068	1.79 ± 0.069	2.11 ± 0.044
ETFISSMTATADVLAMA [RIP1]	1.93 ± 0.11	2.48 ± 0.097	3.13 ± 0.077	1.44 ± 0.054
KKVSRRNARAARAAKIA [RPL13B]	3.05 ± 0.084	2.65 ± 0.11	2.63 ± 0.18	2.69 ± 0.045
DQPQSSEAKRTKFSNPA [BRR2]	3.1 ± 0.093	2.65 ± 0.068	3.24 ± 0.086	3.13 ± 0.084
KIYRVGKGDDEANGATS [RPL3]	3.45 ± 0.071	3.6 ± 0.1	3.67 ± 0.045	3.22 ± 0.11
GLVNPKTVQSMTQRAIQ [SWI3]	3.25 ± 0.14	2.25 ± 0.14	2.39 ± 0.14	2.05 ± 0.092
EDGMIIDVNLNFARQLL [RRP40]	3.15 ± 0.086	3.23 ± 0.074	3.26 ± 0.079	3.11 ± 0.063
DHINWEHIKQDYVASLN [NSL1]	3.12 ± 0.069	3.23 ± 0.069	2.72 ± 0.058	2.9 ± 0.056
IPSGNVWNYTFMGTAFN [PRP8]	2.76 ± 0.11	2.47 ± 0.16	2.74 ± 0.095	2.93 ± 0.068
SKSEFAHRIMLTNILRM [FAS2]	1.62 ± 0.066	1.67 ± 0.068	1.46 ± 0.14	1.85 ± 0.081

Sequence	protein stability index (doa10∆)	protein stability index (pdr5∆)	protein stability index (san1∆)	protein stability index (ubr1∆)
SALEQAIIYQRGKDGKL [YGL100W/SEH1]	2.93 ± 0.073	3.22 ± 0.051	3.15 ± 0.047	3 ± 0.06
SAENRDEKDYLTNQQPK [CSE2]	2.76 ± 0.063	2.79 ± 0.062	2.54 ± 0.048	2.77 ± 0.038
DPSLNLKLLAKSHVLLA [BRR2]	2.02 ± 0.085	2.44 ± 0.1	1.79 ± 0.21	2.06 ± 0.15
NIKPVEQHHINNLKNSG [GAL11]	2.69 ± 0.062	2.59 ± 0.049	2.36 ± 0.069	2.47 ± 0.041
FGEWAGMTKSNIYNFSP [BRR2]	2.94 ± 0.083	3.05 ± 0.082	2.89 ± 0.055	2.98 ± 0.052
EDFDVEHFSDEETYEEK [RPO26]	3.64 ± 0.11	3.05 ± 0.2	3.19 ± 0.22	3.45 ± 0.11
DIFITPTPVVTISEKEQ [SSN2]	1.76 ± 0.079	1.95 ± 0.077	1.48 ± 0.12	1.67 ± 0.069
ESWANQLTVCGAIIGWT [FAS2]	1.13 ± 0.041	1.3 ± 0.038	1.2 ± 0.088	1.44 ± 0.037
KTVKELRQLLKERYTVE [RRI1]	2.74 ± 0.054	2.1 ± 0.062	2.1 ± 0.066	3.06 ± 0.068
DELRKQELISKAFTNWN [ISW2]	2.04 ± 0.065	2.45 ± 0.078	2.4 ± 0.089	2.23 ± 0.067
SYYSREQDALFITRLAQ [RPN1]	1.71 ± 0.044	1.85 ± 0.045	1.65 ± 0.078	1.8 ± 0.042
KKKRKKKNKSAIDGIFG [RMP1]	2.47 ± 0.045	2.83 ± 0.045	2.81 ± 0.042	3.03 ± 0.038
VNDVELAFKKNEMLLKR [MTW1]	3.24 ± 0.19	3.46 ± 0.14	3.4 ± 0.14	3.11 ± 0.066
TPTDVIGVVSLTNGVTE [RRP6]	3.21 ± 0.14	2.87 ± 0.07	3.03 ± 0.098	3.15 ± 0.059
RNFLETVELQVGLKNYD [RPL1A]	3.01 ± 0.087	3.08 ± 0.079	3.1 ± 0.091	3.15 ± 0.074
TKTPGPGGQAALRALAR [RPS14A]	2.64 ± 0.042	2.27 ± 0.031	2.39 ± 0.042	2.3 ± 0.029
GLSVTQKVFVRSRNGGA [DIS3]	1.46 ± 0.071	1.32 ± 0.065	1.4 ± 0.15	1.62 ± 0.063
IALMGQDNKKIYVHVRR [ESC2]	2.33 ± 0.081	2.57 ± 0.12	2.47 ± 0.17	2.53 ± 0.068
VMRNTYNTRKNAVTAAA [GAL11]	1.78 ± 0.045	1.94 ± 0.051	2.11 ± 0.07	1.97 ± 0.036
NNTTTTSTKPSFSFGAP [YOR098C/NUP1]	3.26 ± 0.11	3.38 ± 0.1	3.04 ± 0.056	3.01 ± 0.076
SDLNLTDRQKKLLGVDM [YLR018C/POM34]	3.17 ± 0.052	3.09 ± 0.055	3.19 ± 0.039	3.23 ± 0.039
LTNEDPPGLMYLKAFDK [SSN2]		2.61 ± 0.26		3.22 ± 0.13
GESEKSSDVDMDDEEWR [RPC53]	3.7 ± 0.22	3.63 ± 0.21	3.35 ± 0.21	3.33 ± 0.18
KDTTGPKAISNFLIKLS [YCS4]	2.09 ± 0.11	2.08 ± 0.1	1.34 ± 0.14	1.52 ± 0.065
LLVPASDLINKDLVKNN [FAS1]	1.76 ± 0.086	2.95 ± 0.097	3.11 ± 0.12	2.83 ± 0.11
VTNNVEEGEFIIDLYSL [TAF14]	3.38 ± 0.085	3.48 ± 0.083	3.58 ± 0.057	3.54 ± 0.06
